{"source": "paper PMC6872149", "about": "“Protein:Protein interactions in the cytoplasmic membrane apparently influencing sugar transport and phosphorylation activities of the e. coli phosphotransferase system” (PLoS ONE, 2019)", "target": "MtlA (mannitol PTS Enzyme IIC-IIB-IIA) fused to the T25 domain (pKNT25-mtlA) (E. coli, UniProt P00550 1-637)", "sequence (P00550 whole entry, the tested form may be a part)": "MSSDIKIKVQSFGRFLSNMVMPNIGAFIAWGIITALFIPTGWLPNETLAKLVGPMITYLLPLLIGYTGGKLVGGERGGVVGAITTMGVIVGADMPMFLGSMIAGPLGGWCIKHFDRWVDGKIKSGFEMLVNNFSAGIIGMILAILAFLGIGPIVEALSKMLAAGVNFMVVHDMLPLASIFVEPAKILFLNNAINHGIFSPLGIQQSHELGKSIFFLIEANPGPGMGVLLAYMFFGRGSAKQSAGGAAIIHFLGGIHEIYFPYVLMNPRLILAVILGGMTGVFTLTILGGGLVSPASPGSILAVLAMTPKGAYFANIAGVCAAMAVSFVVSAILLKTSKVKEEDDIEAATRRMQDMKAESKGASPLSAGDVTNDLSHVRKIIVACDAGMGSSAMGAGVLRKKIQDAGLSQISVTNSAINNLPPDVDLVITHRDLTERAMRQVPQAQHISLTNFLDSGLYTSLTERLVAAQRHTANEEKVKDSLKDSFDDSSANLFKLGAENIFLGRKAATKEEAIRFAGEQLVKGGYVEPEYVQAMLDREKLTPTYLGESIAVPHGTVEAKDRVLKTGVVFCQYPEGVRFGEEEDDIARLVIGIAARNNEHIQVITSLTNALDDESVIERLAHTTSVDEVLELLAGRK", "assay": "cell-based or functional assay"}
{"binder": "FruB (fructose PTS IIA-FPr) fused to the T18 domain (pUT18-fruB) (natural protein, E. coli, UniProt P69811 1-376, looked up) MFQLSVQDIHPGEKAGDKEEAIRQVAAALVQAGNVAEGYVNGMLAREQQTSTFLGNGIAIPHGTTDTRDQVLKTGVQVFQFPEGVTWGDGQVAYVAIGIAASSDEHLGLLRQLTHVLSDDSVAEQLKSATTAEELRALLMGEKQSEQLKLDNEMLTLDIVASDLLTLQALNAARLKEAGAVDATFVTKAINEQPLNLGQGIWLSDSAEGNLRSAIAVSRAANAFDVDGETAAMLVSVAMNDDQPIAVLKRLADLLLDNKADRLLKADAATLLALLTSDDAPTDDVLSAEFVVRNEHGLHARPGTMLVNTIKQFNSDITVTNLDGTGKPANGRSLMKVVALGVKKGHRLRFTAQGADAEQALKAIGDAIAAGLGEGA", "values": [{"measurement": "PEP-dependent [14C]mannitol phosphorylation in vitro, activity ratio (Enzyme II plus FruB / Enzyme II alone); purified His-FruB 0.23 μM added to crude extract Cr.Ext-ΔfruBKA-pMAL (no FruA)", "value": 1.2, "unit": "ratio"}, {"measurement": "PEP-dependent [14C]mannitol phosphorylation in vitro, activity ratio (Enzyme II plus FruB / Enzyme II alone); purified His-FruB 0.23 μM added to membrane pellets MP-WT-pMAL (no fruA overexpression)", "value": 1.5, "unit": "ratio"}, {"measurement": "PEP-dependent [14C]mannitol phosphorylation in vitro, activity ratio (Enzyme II plus FruB / Enzyme II alone); purified His-FruB 0.23 μM added to membrane pellets MP-WT-pMAL-fruA (fruA overexpressed)", "value": 8.6, "unit": "ratio"}, {"measurement": "PEP-dependent [14C]mannitol phosphorylation in vitro, activity ratio (Enzyme II plus FruB / Enzyme II alone); purified His-FruB 0.23 μM added to membrane pellets MP-ΔfruBKA-pMAL (no FruA)", "value": 1.2, "unit": "ratio"}]}
